In the assay the target is GST-Kv4.3 NT (human). Kind of assay: pull-down.

A value given as a limit tells only on which side of the number the result lay.

GST-Kv4.3 NT (human), sequence (Q9UK17 whole entry): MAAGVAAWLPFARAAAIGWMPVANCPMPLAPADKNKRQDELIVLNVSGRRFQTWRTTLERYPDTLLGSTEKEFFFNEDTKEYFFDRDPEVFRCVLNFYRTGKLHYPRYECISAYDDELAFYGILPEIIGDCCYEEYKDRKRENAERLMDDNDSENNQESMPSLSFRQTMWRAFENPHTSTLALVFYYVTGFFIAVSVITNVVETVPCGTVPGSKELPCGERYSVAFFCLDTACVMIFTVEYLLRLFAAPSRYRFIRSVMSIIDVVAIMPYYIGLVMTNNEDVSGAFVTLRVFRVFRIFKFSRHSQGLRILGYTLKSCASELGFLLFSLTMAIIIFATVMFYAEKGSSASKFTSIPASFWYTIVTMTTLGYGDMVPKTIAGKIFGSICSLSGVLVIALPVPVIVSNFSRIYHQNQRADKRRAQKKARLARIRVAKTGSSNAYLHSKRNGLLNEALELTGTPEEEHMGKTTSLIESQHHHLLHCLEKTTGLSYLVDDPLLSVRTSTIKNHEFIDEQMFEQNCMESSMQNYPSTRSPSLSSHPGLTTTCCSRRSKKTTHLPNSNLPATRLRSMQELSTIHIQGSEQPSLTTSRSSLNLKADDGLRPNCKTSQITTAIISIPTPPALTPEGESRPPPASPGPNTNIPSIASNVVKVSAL

In turn, “DPP6-T p.H332R variant, in vitro translated and radiolabeled (natural protein)” registered a fold binding activity relative to DPP6-T of more than 2 fold.

(Values after PMC4599408.)
